In PMC7395514:

Target: Celsr3 (UniProt Q91ZI0)
Experiment: co-immunoprecipitation, both in same cell
Conditions: reference: Fzd3 wild type; sites T598

binding against the reference: weaker
Substance: Frizzled3 (Fzd3) (from UniProt Q61086) Fzd3 T598A
